The text below walks through data of patent publication US20220339270A1 (published 2022).

Test [1] has as its target T1, recombinant tau mutant protein tau441-T212A+S214A (phospho-Tau variant) (human, UniProt P10636 1-758, phosphorylated (phospho-Tau variant; kinase DYRK1A by the context)).
T1 construct: not shown: his tag (detected with anti-his antibody)
Briefly: PT3 ELISA with phospho-Tau variants.

Test [2] concerns the target T2, recombinant tau mutant protein tau441-T212A+T217A+T231A (phospho-Tau variant) (human, UniProt P10636 1-758, phosphorylated (phospho-Tau variant; kinase DYRK1A by the context)).
T2 construct: not shown: his tag (detected with anti-his antibody)
The test can be described thus: PT3 ELISA with phospho-Tau variants. (In general: In an ELISA, binding on a coated surface is turned into a signal by an enzyme label.)

Test [3] concerns the target T3, recombinant tau mutant protein tau441-T217A+T231A (phospho-Tau variant) (human, UniProt P10636 1-758, phosphorylated (phospho-Tau variant; kinase DYRK1A by the context)).
T3 construct: not shown: his tag (detected with anti-his antibody)
Briefly: PT3 ELISA with phospho-Tau variants.

Test [4] addresses T4, recombinant tau mutant protein tau441-T212A+T217A (phospho-Tau variant) (human, UniProt P10636 1-758, phosphorylated (phospho-Tau variant; kinase DYRK1A by the context)).
T4 construct: not shown: his tag (detected with anti-his antibody)
The test can be described thus: PT3 ELISA with phospho-Tau variants.

The target of test [5] is T5, recombinant tau mutant protein tau441-T212A+T231A (phospho-Tau variant) (human, UniProt P10636 1-758, phosphorylated (phospho-Tau variant; kinase DYRK1A by the context)).
T5 construct: not shown: his tag (detected with anti-his antibody)
T5 sequence (P10636 other isoform, or with tags, fused parts or gaps T212A T231A T212A T231A): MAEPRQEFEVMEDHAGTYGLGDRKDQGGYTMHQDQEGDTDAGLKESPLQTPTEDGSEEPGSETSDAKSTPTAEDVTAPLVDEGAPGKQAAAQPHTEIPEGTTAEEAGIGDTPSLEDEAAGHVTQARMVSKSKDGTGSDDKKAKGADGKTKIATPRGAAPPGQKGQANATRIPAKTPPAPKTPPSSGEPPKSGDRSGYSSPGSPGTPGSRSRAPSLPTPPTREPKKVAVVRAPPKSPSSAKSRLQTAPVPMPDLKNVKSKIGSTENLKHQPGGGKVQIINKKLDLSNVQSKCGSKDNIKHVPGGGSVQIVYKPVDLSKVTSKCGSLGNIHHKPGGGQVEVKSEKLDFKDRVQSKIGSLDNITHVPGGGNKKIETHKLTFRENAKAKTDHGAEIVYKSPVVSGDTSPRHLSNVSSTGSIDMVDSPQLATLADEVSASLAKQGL
The test can be described thus: PT3 ELISA with phospho-Tau variants.

Test [6] concerns the target T6, extracellular tau in the form of paired helical filaments (ePHF) (UniProt P10636-8 1-441, limits assumed).
T6 construct: Immobilised on 96-well plates for the ePHF tau ELISA; also called ePHF tau; PHF tau
Briefly: method not stated.

Test [7] addresses T7, Tau441-T212A + T217A, phosphorylated in vitro by DYRK1A (human, UniProt P10636 1-758, phosphorylated in vitro by DYRK1A; occupied sites not determined individually).
T7 construct: His-tagged
The test can be described thus: PT3 ELISA, 210 ng/mL DYRK1A-phosphorylated tau variant.

The target of test [8] is T8, Tau441-T212A + T231A, phosphorylated in vitro by DYRK1A (human, UniProt P10636 1-758, phosphorylated in vitro by DYRK1A; occupied sites not determined individually).
T8 construct: His-tagged
T8 sequence (P10636 other isoform, or with tags, fused parts or gaps T212A T231A T212A T231A limits assumed): as the sequence (P10636 other isoform, or with tags, fused parts or gaps T212A T231A T212A T231A) above
Described as above.

The target of test [9] is T9, Tau441-T217A + T231A, phosphorylated in vitro by DYRK1A (human, UniProt P10636 1-758, phosphorylated in vitro by DYRK1A; occupied sites not determined individually).
T9 construct: His-tagged
T9 sequence (P10636 other isoform, or with tags, fused parts or gaps T217A T231A T217A T231A limits assumed): as the sequence (P10636 other isoform, or with tags, fused parts or gaps T212A T231A T212A T231A) above, with A212T, T217A counted along it
Described as above.

For test [10], the target named is T10, Tau441-T212A + S214A, phosphorylated in vitro by DYRK1A (human, UniProt P10636 1-758, phosphorylated in vitro by DYRK1A; occupied sites not determined individually).
T10 construct: His-tagged
Described as above.

Test [11] has as its target T11, Wild-type Tau441, phosphorylated in vitro by DYRK1A (human, UniProt P10636 1-758).
T11 construct: Recombinant protein detected with an anti-his antibody; also called phospho-tau
Described as above.

The target in test [12] is T12, Tau441-T212A + T217A + T231A, phosphorylated in vitro by DYRK1A (human, UniProt P10636 1-758, phosphorylated in vitro by DYRK1A; occupied sites not determined individually).
T12 construct: His-tagged
T12 sequence (P10636 other isoform, or with tags, fused parts or gaps T212A T217A T231A T212A T217A T231A limits assumed): as the sequence (P10636 other isoform, or with tags, fused parts or gaps T212A T231A T212A T231A) above, with T217A counted along it
The test is described as above.

The target of a further test is T13, Tau441_S396A (human, UniProt P10636 2-758).
T13 construct: not phosphorylated; not shown: his tag added
T13 sequence (P10636 other isoform, or with tags, fused parts or gaps S396A S396A): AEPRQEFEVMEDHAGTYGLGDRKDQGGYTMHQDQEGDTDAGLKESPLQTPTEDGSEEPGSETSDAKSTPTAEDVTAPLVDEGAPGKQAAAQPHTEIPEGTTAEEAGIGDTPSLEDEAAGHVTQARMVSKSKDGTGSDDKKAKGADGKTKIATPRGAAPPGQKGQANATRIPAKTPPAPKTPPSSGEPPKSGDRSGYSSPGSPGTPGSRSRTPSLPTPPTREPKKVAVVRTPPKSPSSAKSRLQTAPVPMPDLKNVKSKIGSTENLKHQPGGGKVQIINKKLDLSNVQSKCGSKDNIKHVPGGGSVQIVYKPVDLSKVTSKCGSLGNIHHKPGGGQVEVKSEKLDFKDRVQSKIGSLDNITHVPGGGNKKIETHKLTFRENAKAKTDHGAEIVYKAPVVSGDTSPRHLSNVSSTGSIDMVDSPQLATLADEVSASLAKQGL
Briefly: ELISA, PT3 immobilized, tau protein applied at 333 ng/mL.

The target in a further test is T14, Phospho_Tau441_T202A (human, UniProt P10636 2-758, phosphorylated in vitro by DYRK1A; sites not determined).
T14 construct: the list of mutated sites gives S202; also called S202 mutant; not shown: his tag added
Described as above.

The target of the next test is T15, Phospho_Tau441_S400A (human, UniProt P10636 2-758, phosphorylated in vitro by DYRK1A; sites not determined).
T15 construct: not shown: his tag added
The description is as above.

The next test addresses T16, Phospho_Tau441_S396A (human, UniProt P10636 2-758, phosphorylated in vitro by DYRK1A; sites not determined).
T16 construct: not shown: his tag added
The test is described as above.

The target of another test is T17, Phospho_Tau441_S422A (human, UniProt P10636 2-758, phosphorylated in vitro by DYRK1A; sites not determined).
T17 construct: not shown: his tag added
The test is described as above.

A further test concerns the target T18, Phospho_Tau441_S404A (human, UniProt P10636 2-758, phosphorylated in vitro by DYRK1A; sites not determined).
T18 construct: not shown: his tag added
The test is described as above.

The target of a further test is T19, Tau441_S404A (human, UniProt P10636 2-758).
T19 construct: not phosphorylated; not shown: his tag added
The description is as above.

A further test has as its target T20, Tau441_T212A (human, UniProt P10636 2-758).
T20 construct: not phosphorylated; not shown: his tag added
The test is described as above.

A further test addresses T21, Tau441_S199A (human, UniProt P10636 2-758).
T21 construct: not phosphorylated; not shown: his tag added
The test is described as above.

The target of another test is T22, Phospho_Tau441_T217A (human, UniProt P10636 2-758, phosphorylated in vitro by DYRK1A; sites not determined).
T22 construct: not shown: his tag added
The description is as above.

For another test, the target named is T23, Tau441_S400A (human, UniProt P10636 2-758).
T23 construct: not phosphorylated; not shown: his tag added
The description is as above.

In a further test the target is T24, Tau441_T202A (human, UniProt P10636 2-758).
T24 construct: not phosphorylated; printed T202A, the text gives S202; also called S202 mutant; not shown: his tag added
Described as above.

For a further test, the target named is T25, Tau441_T205A (human, UniProt P10636 2-758).
T25 construct: not phosphorylated; not shown: his tag added
T25 sequence (P10636 other isoform, or with tags, fused parts or gaps T205A T205A): as the sequence (P10636 other isoform, or with tags, fused parts or gaps S396A S396A) above, with T204A, A395S counted along it
The description is as above.

The next test has as its target T26, Tau441_T217A (human, UniProt P10636 2-758).
T26 construct: not phosphorylated; not shown: his tag added
Described as above.

Another test addresses T27, Phospho_Tau441_T181A (human, UniProt P10636 2-758, phosphorylated in vitro by DYRK1A; sites not determined).
T27 construct: not shown: his tag added
Described as above.

The target of another test is T28, Phospho_Tau441_T231A (human, UniProt P10636 2-758, phosphorylated in vitro by DYRK1A; sites not determined).
T28 construct: not shown: his tag added
The test is described as above.

The target of the next test is T29, Tau441_T231A (human, UniProt P10636 2-758).
T29 construct: not phosphorylated; not shown: his tag added
Described as above.

In the next test the target is T30, Tau441_T181A (human, UniProt P10636 2-758).
T30 construct: not phosphorylated; not shown: his tag added
The test is described as above.

In a further test the target is T31, Phospho_Tau441_S199A (human, UniProt P10636 2-758, phosphorylated in vitro by DYRK1A; sites not determined).
T31 construct: not shown: his tag added
Described as above.

For the next test, the target named is T32, Phospho_Tau441_T212A (human, UniProt P10636 2-758, phosphorylated in vitro by DYRK1A; sites not determined).
T32 construct: not shown: his tag added
Described as above.

The next test has as its target T33, Phospho_Tau441_T205A (human, UniProt P10636 2-758, phosphorylated in vitro by DYRK1A; sites not determined).
T33 construct: not shown: his tag added
The test is described as above.

T16 sequence (P10636 other isoform, or with tags, fused parts or gaps S396A S396A): as the sequence (P10636 other isoform, or with tags, fused parts or gaps S396A S396A) above
T2 sequence (P10636 other isoform, or with tags, fused parts or gaps T212A T217A T231A T212A T217A T231A): as the sequence (P10636 other isoform, or with tags, fused parts or gaps T212A T231A T212A T231A) above, with T217A counted along it
T6 sequence (P10636 other isoform, or with tags, fused parts or gaps limits assumed): as the sequence (P10636 other isoform, or with tags, fused parts or gaps T212A T231A T212A T231A) above, with A212T, A231T counted along it
T33 sequence (P10636 other isoform, or with tags, fused parts or gaps T205A T205A): as the sequence (P10636 other isoform, or with tags, fused parts or gaps S396A S396A) above, with T204A, A395S counted along it
T3 sequence (P10636 other isoform, or with tags, fused parts or gaps T217A T231A T217A T231A): as the sequence (P10636 other isoform, or with tags, fused parts or gaps T212A T231A T212A T231A) above, with A212T, T217A counted along it

B1: anti-tau antibody PT3 (antibody, V domains shown)
VH: EVKLVESGGDLVKPGGSLKLSCAASGFTFSSYAMSWVRQNPEKRLEWVASISKGGNTYYPNSVKGRFTISRDNARNILYLQMSSLRSEDTALYYCARGWGDYGWFAYWGQVTLVTVSA
VL: DIKMTQSPSSMYASLGERVTITCKASQDINRYLNWFQQKPGKSPKTLIYRANRLLDGVPSRFSGSGSGQDYSLTISSLDYEDMGIYYCLQYDEFPLTFGDGTKLELK
notes: also called purified PT3 antibody
What is called Kd is the equilibrium constant for the complex coming apart. For the molecule B1, the binding result in test [1], in test [2], in test [3], in test [4] and in test [5] was “no binding (tested: 210 ng/mL)” throughout. In addition, binding in test [6] was characterised by a dissociation constant (Kd) of 0.018 nM.

B2: anti-tau antibody PT3 (antibody, V domains shown)
VH: B1 VH
VL: B1 VL
B2: the OD450-570 in [7] was determined as 0 OD; in test [8] it was 0.1 OD; in test [9], 0.1 OD; in test [10], 0.1 OD; in test [11] it was 1.7 OD; in test [12], 0 OD.

B3: anti-tau antibody PT3 (antibody, V domains shown)
VH: B1 VH
VL: B1 VL
On to B3, for which the OD450-570 is 0 with Tau441_S396A; 0.6 in the test with Phospho_Tau441_T202A; 0.3 in the test with Phospho_Tau441_S400A; 0.5 in the test with Phospho_Tau441_S396A; 0.3 with Phospho_Tau441_S422A; 0.6 with Phospho_Tau441_S404A. Moreover, the OD450-570 in the test with Tau441_S404A, in the test with Tau441_T212A, in the test with Tau441_S199A, with Phospho_Tau441_T217A, with Tau441_S400A and with Tau441_T202A was 0 throughout. The OD450-570 was 0 in the test with Tau441_T205A; 0 in the test with Tau441_T217A; 0.4 in the test with Phospho_Tau441_T181A; 0.3 with Phospho_Tau441_T231A; 0 in the test with Tau441_T231A; 0 in the test with Tau441_T181A. The OD450-570 with Phospho_Tau441_S199A was determined as 0.7; in the test with Phospho_Tau441_T212A it was 0; with Phospho_Tau441_T205A, 0.4.
